Measured values reported in patent US20140328753A1 (UNIVERSITE BORDEAUX SEGALEN, published 2014).

Key:
biotinylated BSA = biological target: T1, biotinylated BSA (bovine, UniProt P02769 25-607, biotinylated); test: direct TR-FRET, scFv coated
T1 construct: Control protein in the direct TR-FRET assay, at 50 ug/mL; also called biotinylated control protein; bovine serum albumin
Protocol: FIG. 4. Direct TR-FRET binding assays between scFvs and atheromatous tissue extracts. Direct TR-FRET principle is schematized at the top. The donor fluorophore europium cryptate (Eu)K conjugated to anti-c-myc mAb was able to recognize c-myc tag expressed by scFvs. The acceptor fluorophore XL665 conjugated to streptavidin bound biotinylated protein extract. When scFvs and target proteins bound, a FRET signal was recorded. […] Specific TR-FRET signal was measured as a percentage DeltaF (percent DeltaF). The time course of the detection of the complex formation was performed after 6 hours (▪), 16 hours ( ), 24 hours ( ) and 40 hours (□) of incubation at 4° C. Ten microliter of scFv were coated on the plate at concentrations between 3 and 10 μg/mL according to the clone. The signals were measured in the presence of 4 nmol/L of mAb-(Eu)K, 4 nmol/L of streptavidin-XL665, and 30 μg/mL of biotinylated atheromatous protein extract or 50 μg/mL of biotinylated BSA (data not shown). Histobar values represent the average of at least three independent experiments±SD performed from the same purified scFv production.
Binding assays between scFvs and atheromatous protein extracts were assessed by direct TR-FRET. Black Fluotrac 600 microplate (Greiner) was coated with 10 μL of scFv (final concentration comprised between 3 and 10 μg/mL according to the clone) in 0.1 mol/L NaHCO₃, pH 8.6 for 16 hours at 4° C. Subsequently, plates were blocked for 3 hours at 4° C. using 1% BSA (w/v) in PBS solution. Following washing in PBS, 30 μg/mL of biotinylated atheromatous protein extract in 1% BSA/PBS was incubated for 16 hours at 4° C. After washing in PBS, 50 μL of reaction buffer (100 mmol/L Phosphate buffer, pH 7; 400 mmol/L KF buffer; 0.1% BSA), 4 nmol/L of anti c-myc-(Eu)K (Cisbio Bioassays, Codolet, France) and 4 nmol/L of streptavidin-XL665 (Cisbio Bioassays) were incubated in a final volume of 100 μL. FRET signal emission was measured and monitored with an Infinite® F500 reader (Tecan, Lyon, France) on a 40-hour time course. The percent DeltaF values reported the intensity of the direct binding between scFvs and protein extract.

[1] = biological target: human recombinant carbonic anhydrase II (human, UniProt P00918 1-260); test: ELISA, CA-II coated at 10 µg/mL, scFv at 10 µg/mL
Protocol: Ninety-six well ELISA microtiter plates (Greiner) were coated overnight, at 4° C., with 100 µL of human recombinant carbonic anhydrase II (Sigma-Aldrich, St louis, USA) at a final concentration of 10 μg/mL, or bovine serum albumin at 50 μg/mL in carbonate buffer (NaHCO3/Na2CO3, 50 mmol/L, pH 9.6). All further reactions were carried out at room temperature. Following three washing steps with PBS-Tween 20 (0.5% Tween 20), 100 μL of purified K3.1 scFv at 10 μg/mL were added to each well. After a 2-h incubation and five washing steps, bound scFv was labeled with a mix of HRP-conjugated anti c-myc (diluted 1/1000, Miltenyi Biotech) and anti 6His (diluted 1/500, Roche Diagnostics) mAbs. After 1-h incubation and washing steps, color was developed with 100 μL of 3,3′,5,5′-Tetramethylbenzidine (TMB) liquid substrate system for ELISA (Sigma) and the absorbance was read at 450 nm with an Infinite® F500 reader (Tecan, Lyon, France).

[2] = biological target: T2, rabbit cytosolic carbonic anhydrase isoenzyme II (CA-II) (rabbit, UniProt P00919 2-260); test: immunoprecipitation from rabbit atherosclerotic lysate on nickel beads, SDS-PAGE, LC-MS/MS
T2 construct: Pulled down from the lysate of rabbit atherosclerotic aorta; also called CA-II protein; protein with an apparent molecular mass of ~29 kDa
Protocol: Nickel-coated superparamagnetic beads (Ademtech, Pessac, France) were pre-washed three times with 500 μL of Binding Buffer (BB) (20 mmol/L Tris, pH 7; 500 mmol/L NaCl) and then incubated for 1 hour with 1 mg of rabbit atheromatous proteins solubilized in low stringent lysis buffer in order to get rid of nonspecific binding proteins. The supernatant free of nonspecific binding proteins was recovered and incubated with 10 μg of purified K3.1 scFv or of an irrelevant scFv for 16 hours at 4° C. under rotation. The next day, 20 μL of clean pre-washed superparamagnetic beads were added and incubated for a further 1 hour at 20° C. After three washings with 500 μL of BB, the immunoprecipitated complexes were eluted with 2×30 μL of elution buffer (20 mmol/L Tris-HCl, pH 7.5; 500 mmol/L NaCl; 100 mmol/L imidazole). The protein complexes were then separated using 10% SDS-PAGE under reducing conditions. The band was excised and submitted to trypsin digestion, followed by liquid chromatrography-tandem mass spectrometry analysis (LC-MS/MS).
To identify the molecule recognized by purified K3.1 scFv, immunoprecipitation experiments using nickel superparamagnetic beads were performed to retain 6H is-tagged scFvs complexed to antigens contained in the rabbit atherosclerotic protein lysate. […]

T1 sequence (P02769 25-607 limits assumed): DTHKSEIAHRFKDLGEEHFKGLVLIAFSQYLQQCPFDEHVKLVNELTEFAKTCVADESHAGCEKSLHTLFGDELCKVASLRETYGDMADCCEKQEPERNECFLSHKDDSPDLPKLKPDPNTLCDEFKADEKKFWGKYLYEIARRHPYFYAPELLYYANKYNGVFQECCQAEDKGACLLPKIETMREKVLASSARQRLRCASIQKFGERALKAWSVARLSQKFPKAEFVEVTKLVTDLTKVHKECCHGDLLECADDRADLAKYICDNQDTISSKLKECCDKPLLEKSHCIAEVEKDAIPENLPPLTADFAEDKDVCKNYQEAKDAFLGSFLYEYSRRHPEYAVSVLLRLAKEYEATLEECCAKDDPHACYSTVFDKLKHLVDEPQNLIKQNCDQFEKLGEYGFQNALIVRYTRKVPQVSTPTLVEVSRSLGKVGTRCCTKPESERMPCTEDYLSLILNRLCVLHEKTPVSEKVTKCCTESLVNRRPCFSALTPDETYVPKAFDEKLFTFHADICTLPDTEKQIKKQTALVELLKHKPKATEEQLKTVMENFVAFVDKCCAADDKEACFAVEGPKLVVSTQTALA

B1: K3.1 scFv antibody (scFv)
scFv: EVQLVESGGSLVKPGGSLRLSCAASGFTFSNYSMNWVRQAPGKGLEWISSISGSSRYIYYADFVKGRFTISRDNATNSLYLQMNSLRAEDTAVYYCVRGEGLYSGSYNLHYWGRGTLVTVSSGGGGSGGGGSGGGGSQSVLTQPASVSGSPGQSITISCAGTSSDVGGYNYVSWYQQHPGKAPKLMIYEDSKRPSGVSNRFSGSKSGNTASLTISGLQAEDEADYFCGTPNTHALWVFGGGTKLAV
notes: Human scFv from a semi-synthetic library (13R4 framework), made soluble in E. coli HB2151 and purified on nickel; It carried c-myc and 6His tags in the assays
binding result (biotinylated BSA): no binding (tested: 50 µg/mL of biotinylated BSA)
binding result [1]: binds
binding result [2]: binds

B2: H2.1 scFv antibody (scFv)
scFv: EVQLVESGGSLVKPGGSLRLSCAASGFTFSNYSMNWVRQAPGKGLEWISSISGSSRYIYYADFVKGRFTISRDNATNSLYLQMNSLRAEDTAVYYCVRGGVDSSGDNCFDLWGRGTLVTVSSGGGGSGGGGSGGGGSQSVLTQPASVSGSPGQSITISCAGTSSDVGGYNYVSWYQQHPGKAPKLMIYEDSKRPSGVSNRFSGSKSGNTASLTISGLQAEDEADYYCTSYGSGATLVFGGGTKLAV
notes: Soluble scFv with c-myc and 6His tags
binding result (biotinylated BSA): no binding (tested: 50 µg/mL of biotinylated BSA)

B3: C3.3 scFv antibody (scFv)
scFv: EVQLVESGGSLVKPGGSLRLSCAASGFTFSNYSMNWVRQAPGKGLEWISSISGSSRYIYYADFVKGRFTISRDNATNSLYLQMNSLRAEDTAVYYCVRGIDGGGGWNYFDHWGRGTLVTVSSGGGGSGGGGSGGGGSQSVLTQPASVSGSPGQSITISCAGTSSDVGGYNYVSWYQQHPGKAPKLMIYEDSKRPSGVSNRFSGSKSGNTASLTISGLQAEDEADYYCRQPSNSPPLNFGGGTKLAV
notes: as for B2
binding result (biotinylated BSA): no binding (tested: 50 µg/mL of biotinylated BSA)

B4: I8.1 scFv antibody (scFv)
scFv: EVQLVESGGSLVKPGGSLRLSCAASGFTFSNYSMNWVRQAPGKGLEWISSISGSSRYIYYADFVKGRFTISRDNATNSLYLQMNSLRAEDTAVYYCVRNSFYASWSKDYSMEIWGRGTLVTVSSGGGGSGGGGSGGGGSQSVLTQPASVSGSPGQSITISCAGTSSDVGGYNYVSWYQQHPGKAPKLMIYEDSKRPSGVSNRFSGSKSGNTASLTISGLQAEDEADYYCQSWASRINIFGGGTKLAV
notes: as for B2
binding result (biotinylated BSA): no binding (tested: 50 µg/mL of biotinylated BSA)
